According to patent publication US20140287471A1, “VARIANT CBH I POLYPEPTIDES WITH REDUCED PRODUCT INHIBITION” (BP CORPORATION NORTN AMERICA INC., priority 2011, published 2014):
Residue numbers refer to the chain shown, from its start.

B1: 268— Asn (protein, UniProt P62694 18-513, looked up, variant R268N)
Exoglucanase 1: QSACTLQSETHPPLTWQKCSSGGTCTQQTGSVVIDANWRWTHATNSSTNCYDGNTWSSTLCPDNETCAKNCCLDGAAYASTYGVTTSGNSLSIGFVTQSAQKNVGARLYLMASDTTYQEFTLLGNEFSFDVDVSQLPCGLNGALYFVSMDADGGVSKYPTNTAGAKYGTGYCDSQCPRDLKFINGQANVEGWEPSSNNANTGIGGHGSCCSEMDIWEANSISEALTPHPCTTVGQEICEGDGCGGTYSDNNYGGTCDPDGCDWNPYRLGNTSFYGPGSSFTLDTTKKLTVVTQFETSGAINRYYVQNGVTFQQPNAELGSYSGNELNDDYCTAEEAEFGGSSFSDKGGLTQFKKATSGGMVLVMSLWDDYYANMLWLDSTYPTNETSSTPGAVRGSCSTSSGVPAQVESQSPNAKVTFSNIKFGPIGSTGNPSGGNPPGGNRGTTTTRRPATTTGSSPGPTQSHYGQCGGIGYSGPTVCASGTTCQVLNPYYSQCL
B2: 268_+411A Trp (protein, UniProt P62694 18-513, looked up, variant R268W R411A)
Exoglucanase 1: B1 Exoglucanase 1 with N251W, R394A
B3: 268_+411A Arg (protein, UniProt P62694 18-513, looked up, variant R411A)
Exoglucanase 1: B1 Exoglucanase 1 with N251R, R394A
B4: 268_+411A Val (protein, UniProt P62694 18-513, looked up, variant R268V R411A)
Exoglucanase 1: B1 Exoglucanase 1 with N251V, R394A
B5: 268— Thr (protein, UniProt P62694 18-513, looked up, variant R268T)
Exoglucanase 1: B1 Exoglucanase 1 with N251T
B6: 268— Ser (protein, UniProt P62694 18-513, looked up, variant R268S)
Exoglucanase 1: B1 Exoglucanase 1 with N251S
B7: 268A+411— Ile (protein, UniProt P62694 18-513, looked up, variant R268A R411I)
Exoglucanase 1: B1 Exoglucanase 1 with N251A, R394I
B8: 268A+411— Ala (protein, UniProt P62694 18-513, looked up, variant R268A R411A)
Exoglucanase 1: B1 Exoglucanase 1 with N251A, R394A
B9: 268_+411A Ile (protein, UniProt P62694 18-513, looked up, variant R268I R411A)
Exoglucanase 1: B1 Exoglucanase 1 with N251I, R394A
B10: 268_+411A Pro (protein, UniProt P62694 18-513, looked up, variant R268P R411A)
Exoglucanase 1: B1 Exoglucanase 1 with N251P, R394A
B11: 268— Cys (protein, UniProt P62694 18-513, looked up, variant R268C)
Exoglucanase 1: B1 Exoglucanase 1 with N251C
B12: 268_+411A Ala (protein, UniProt P62694 18-513, looked up, variant R268A R411A)
Exoglucanase 1: B1 Exoglucanase 1 with N251A, R394A

experiment: 4-MUL cellobiose tolerance/inhibition assay, dose-response IC50 (Example 2); assay type: biochemical; settings: 1 mM cellobiose; primary screening; n=1
Description: (§1) CBH I activity on was measured using the 4-MUL assay using gluconolactone to inhibit any BG activity. The fluorogenic 4-MUL substrate (SIGMA) was prepared at 100 mM concentration in DMSO. Assays were run in black 96-well-flat-bottomed plates (Costar) and 4-MU fluorescence was read on a BioTek H4 plate reader (ex/em 365/450 nm). Assay plates were filled with buffer (final concentrations of 100 mM MES, pH 6, 25 mM gluconolactone, with or without cellobiose; cellobiose concentrations are listed with appropriate data sets), to which enzyme mixture was added (10-30 μl, 5 μg/mL final) and then assays were initiated by addition of 4-MUL (0.5 mM final concentration in 100 μl total volume). Enzyme mixtures were either CBH I variants from harvested supernatants or standards. Standards included: a negative control, consisting of harvested supernatant from the CBH I knock-out strain; a positive control, consisting of wild-type CBH I from harvested supernatants; and, a commercial CBH I standard (E-CBHI from Megazymes). Activity standards were run by serial dilution of commercial CBH I from 40 to 0.02 μg/mL and 4-MU (SIGMA, prepared at 20 mM in DMSO) (in dilution increments of 2-fold; all dilutions were made using harvested supernatant from the knock-out control). Kinetic rates were monitored over the first 15 mins following 4-MUL addition; initial rates were calculated based on data in the linear range. After 1 hr, a final endpoint read was taken, both before and after reaction quenching (100 μL of 200 mM Sodium Carbonate, pH 10.0). Activity was calculated for kinetic and endpoint reads; background resulting from the CBH I knock-out supernatant remained negligible. 4MU standard curves and HPLC quantification values were used to calculate specific activity.
Tolerance/inhibition values represent activity ratios and/or percent activity remaining/percent activity decreased in the presence versus the absence of cellobiose. Tolerant variants show less inhibition in the presence of cellobiose as compared to wild type, where an activity ratio of 1 (with vs. without a given concentration of cellobiose) is equivalent to 0% inhibition by cellobiose, or 100% tolerance. The effect of cellobiose on CBH I variant performance was monitored by dose-response in the 4MUL assay. Dose-response curves were generated by assaying variant activity in the presence of 6-8 different cellobiose concentrations ranging up to 100 mM cellobiose. CBH I samples were diluted to 5 μg/mL final concentration or were used directly in the case of protein quantification levels below 5 μg/mL. Half maximal inhibitory concentration (IC50) values were determined by plotting 4MUL activity versus cellobiose concentration and fitting with a four parameter dose-response fitting algorithm, with zero activity (or 100% inhibition) constrained to background activity (as established by CBH I knockout values) and with automatic outlier elimination (on GraphPad Prism 5).
Harvested supernatants from active variant isolates were evaluated for cellobiose tolerance at 1 mM cellobiose in the 4-MUL activity assay. Table 8 lists the tolerance of variants at 1 mM. […] Additional cellobiose concentrations at 0.25, 5, 10, 50, and 100 mM were tested leading to full dose-response curves for which half maximal inhibitory concentration (IC50) values were generated (Table 8). The IC50 values support that the variant library has decreased product inhibition, or increased tolerance to cellobiose, when compared to the wild-type enzyme (WT IC50=0.03 mM; see first entry, Table 8).
In one example, the cellobiose tolerance of the library was explored in more detail by generating dose-response curves and determining half maximal inhibitory concentration (IC50) values, the point at which the enzyme is 50% inhibited.

Molecule | Tolerance at 1 mM CB (MUL Data) [%]
B1 | 41
B2 | 84
B3 | 72
B4 | 93
B5 | 42
B6 | 45
B7 | 107
B8 | 83
B9 | 90
B10 | 80
B11 | 35
B12 | 65

same assay, conditions: primary screening; 10 μL enzyme; cellobiose range 0.0001-100 mM; n=1; read-out: IC50 (MUL Data)

Molecule | IC50 [mM]
B1 | 0.67
B2 | 7.01
B3 | 1.6
B4 | 7.48
B5 | 0.6
B6 | 0.74
B7 | 28
B8 | 5.56
B9 | 10.4
B10 | 7.31
B11 | 0.52
B12 | 1.33

experiment: 4-MUL assay, specific activity (Example 2); assay type: biochemical; settings: primary screening; 10 μL enzyme; n=1
Description: as §1
The specific activity (SA) of the variant library was evaluated in a secondary 4-MUL assay. […] On average, a mutation at position 268 increases the specific activity by 2.5 fold over that of wild type. A mutation at 268 in combination with 411 is around 1.5-1.6 fold higher than wild-type, on average.

Molecule | SA (μmol 4 MU/min/mg) (MUL Data)
B1 | 13.97
B2 | 0.81
B3 | 0.38
B4 | 1.33
B5 | 0.97
B6 | 1.00
B7 | 0.58
B8 | 1.19
B9 | 0.89
B10 | 1.80
B11 | 0.86
B12 | 0.52
